In paper PMC10319324:
Residue numbers refer to the chain shown, from its start. In names and notes the source's numbering stands. Each block holds one binder with its values, some of them ahead of it.

Tests used:
[1] = target: bovine 20S proteasome (bovine) (UniProt Q2YDE4)
[2] = target: T1, recombinant wildtype human PI31 (Proteasome Inhibitor of 31,000 Da) (human), Q92530; experiment: mass photometry; monomer to dimer; His-PI31 diluted to 40 nM total monomer in PBS, recorded immediately after mixing (TwoMP, Refeyn); peaks at 36 to 37 and 56 to 59 kDa; settings: remark: other sources report otherwise
T1 chain: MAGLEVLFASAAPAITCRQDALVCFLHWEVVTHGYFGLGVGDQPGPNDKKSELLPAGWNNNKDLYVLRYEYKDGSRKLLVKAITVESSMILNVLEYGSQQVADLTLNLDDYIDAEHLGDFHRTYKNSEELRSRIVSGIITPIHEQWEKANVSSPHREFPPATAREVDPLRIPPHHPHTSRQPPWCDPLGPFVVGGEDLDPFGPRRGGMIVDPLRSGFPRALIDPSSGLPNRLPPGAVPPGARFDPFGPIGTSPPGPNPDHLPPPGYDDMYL

inhibition of β5-specific peptide hydrolysis by 20S (143 nM 20S, 1.4 μM PI31) (times less well than wildtype hPI31) [1]: 3
B1: human PI31 D197A point mutant (natural protein)
chain: T1 chain with D197A

[monomer]/[M]T ratio [2]: 0.32
dimer counts (mass photometry) [2]: 2060 counts
monomer counts (mass photometry) [2]: 2180 counts
stoichiometry N [2]: 2
B2: recombinant wildtype human PI31 (Proteasome Inhibitor of 31,000 Da), Q92530 1-271 (natural protein)
chain: T1 chain
